# Patent publication US20260184782A1 (TWIST BIOSCIENCE, published 2026)
# T1: human TIGIT-Fc (human, UniProt Q495A1 22-141, limits assumed)
# T1 construct: not shown: Fc; not described
# T1 sequence (looked up): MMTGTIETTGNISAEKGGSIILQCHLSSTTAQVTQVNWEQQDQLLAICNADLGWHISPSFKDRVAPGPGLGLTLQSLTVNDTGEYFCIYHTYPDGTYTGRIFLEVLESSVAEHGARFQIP
# Molecular target: T1, human TIGIT-Fc
# Assay: CD155 competition ELISA, single point; also: test concentration or dose not given here
# Method: TIGIT/CD155 inhibition of VHH-Fcs were assessed using an ELISA assay (Table 10B). Briefly, human TIGIT-Fc was coated on a plate & then incubated with VHH-Fcs and human CD155-biotin. Bound CD155-biotin was detected using a streptavidin-HRP conjugate visualized with TMB. Strong inhibitors from the single point screen were titrated to determine EC50 (Table 10C).
binder,measurement,value
"TIGIT-SC6 (Fc fusion, VHH-Fc) VHH: EVQLVESGGGLVQPGGSLRLSCAASGNTFSGGFMGWFRQAPGKEREWVASVLRGGYTWYADSVKGRFTISADNSKNTAYLQMNSLKPEDTAVYYCAISPVAWHAKFDSWGQGTLVTVSS",OD (450 nm),0.558 OD
"TIGIT-SC8 (Fc fusion, VHH-Fc) VHH: EVQLVESGGGLVQPGGSLRLSCAASGFAFSSYAMGWFRQAPGKEREFVARITWNGGSAYYADSVKGRFTISADNSKNTAYLQMNSLKPEDTAVYYCAAGATGWFDPWGQGTLVTVSS",OD (450 nm),0.817 OD
"TIGIT-SC7 (Fc fusion, VHH-Fc) VHH: EVQLVESGGGLVQPGGSLRLSCAASGRSFSMYVMGWFRQAPGKEREGVSFISGSDGSTLYADSVKGRFTISADNSKNTAYLQMNSLKPEDTAVYYCARGSIAARPVFFDYWGQGTLVTVSS",OD (450 nm),0.735 OD
"TIGIT-SC4 (Fc fusion, VHH-Fc) VHH: EVQLVESGGGLVQPGGSLRLSCAASGSIDRINAMGWFRQATGKEREWVASVLRGGYTWYADSVKGRFTISADNSKNTAYLQMNSLKPEDTAVYYCARDSYSTSFWFDPWGQGTLVTVSS",OD (450 nm),0.579 OD
"TIGIT-SC14 (Fc fusion, VHH-Fc) VHH: EVQLVESGGGLVQPGGSLRLSCAASGSISSIHAMGWFRQAPGKEREFVATISRSGVGTFYADSVKGRFTISADNSKNTAYLQMNSLKPEDTAVYYCASSYSSSSGLGDIWGQGTLVTVSS",OD (450 nm),0.61 OD
"TIGIT-SC10 (Fc fusion, VHH-Fc) VHH: EVQLVESGGGLVQPGGSLRLSCAASGNTFSGGFMGWFRQAPGKEREWVASVLRGGYTWYADSVKGRFTISADNSKNTAYLQMNSLKPEDTAVYYCASDPWGTRYFDHWGQGTLVTVSS",OD (450 nm),0.756 OD
"TIGIT-SC175 (Fc fusion, VHH-Fc) VHH: EVQLVESGGGLVQPGGSLRLSCAASGNTFSGGFMGWFRQAPGKEREWVASVLRGGYTWYADSVKGRFTISADNSKNTAYLQMNSLKPEDTAVYYCTTDALRFLEWPWWGQGTLVTVSS",OD (450 nm),0.59 OD
"TIGIT-SC61 (Fc fusion, VHH-Fc) VHH: EVQLVESGGGLVQPGGSLRLSCAASGNTFSGGFMGWFRQAPGKEREWVASVLRGGYTWYADSVKGRFTISADNSKNTAYLQMNSLKPEDTAVYYCTRGDTAMATFDYWGQGTLVTVSS",OD (450 nm),0.343 OD
"TIGIT-SC21 (Fc fusion, VHH-Fc) VHH: EVQLVESGGGLVQPGGSLRLSCAASGNTFSGGFMGWFRQAPGKEREWVASVLRGGYTWYADSVKGRFTISADNSKNTAYLQMNSLKPEDTAVYYCARGGAGSDWFGPWGQGTLVTVSS",OD (450 nm),0.607 OD
"TIGIT-SC12 (Fc fusion, VHH-Fc) VHH: EVQLVESGGGLVQPGGSLRLSCAASGRTFSAYGMGWFRQAPGKEREFVAAITPSSRTTYYADSVKGRFTISADNSKNTAYLQMNSLKPEDTAVYYCAKDNWGEWLMPWWGQGTLVTVSS",OD (450 nm),0.622 OD
"TIGIT-SC5 (Fc fusion, VHH-Fc) VHH: EVQLVESGGGLVQPGGSLRLSCAASGFAFGDSWMGWFRQAPGKEREWVASVLRGGYTWYADSVKGRFTISADNSKNTAYLQMNSLKPEDTAVYYCARESEGWFDPWGQGTLVTVSS",OD (450 nm),0.564 OD
"TIGIT-SC23 (Fc fusion, VHH-Fc) VHH: EVQLVESGGGLVQPGGSLRLSCAASGFTLSSNWMGWFRQAPGKEREWVASVLRGGYTWYADSVKGRFTISADNSKNTAYLQMNSLKPEDTAVYYCARERLGWFDPWGQGTLVTVSS",OD (450 nm),0.424 OD
"TIGIT-SC183 (Fc fusion, VHH-Fc) VHH: EVQLVESGGGLVQPGGSLRLSCAASGFAFGDSWMGWFRQAPGKEREWVASVLRGGYTWYADSVKGRFTISADNSKNTAYLQMNSLKPEDTAVYYCAKDRSYSFDYWGQGTLVTVSS",OD (450 nm),0.5 OD
"TIGIT-SC9 (Fc fusion, VHH-Fc) VHH: EVQLVESGGGLVQPGGSLRLSCAASGNTFSGGFMGWFRQAPGKEREWVASVLRGGYTWYADSVKGRFTISADNSKNTAYLQMNSLKPEDTAVYYCVNGYSYGRDYWGQGTLVTVSS",OD (450 nm),0.756 OD
